Assay results published in US20240270846A1 (published 2024).

B1: CE115HA000 Y100aL one-arm antibody (antibody, human IgG1, kappa, L234A L235A, N297A, name in Kabat numbering)
heavy: QVQLVESGGGVVQPGRSLRLSCAASGFTFSNAWMHWVRQAPGKGLEWVAQIKAKSNNYATYYAESVKGRFTISRDDSKNSLYLQMNSLKTEDTAVYYCRYVHYGAYLGVDAWGQGTTVTVSSASTKGPSVFPLAPSSKSTSGGTAALGCLVKDYFPEPVTVSWNSGALTSGVHTFPAVLQSSGLYSLSSVVTVPSSSLGTQTYICNVNHKPSNTKVDKKVEPKSCDKTHTCPPCPAPEAAGGPSVFLFPPKPKDTLMISRTPEVTCVVVDVSHEDPEVKFNWYVDGVEVHNAKTKPREEQYASTYRVVSVLTVLHQDWLNGKEYKCKVSNKALPAPIEKTISKAKGQPREPQVYTLPPSRCELTKNQVSLSCAVKGFYPSDIAVEWESNGQPENNYKTTPPVLDSDGSFFLVSKLTVDKSRWQQGNVFSCSVMHEALHNHYTQKSLSLSPDYKDDDDK
chain: EPKSSDKTHTCPPCPAPELLGGPSVFLFPPKPKDTLMISRTPEVTCVVVDVSHEDPEVKFNWYVDGVEVHNAKTKPREEQYNSTYRVVSVLTVLHQDWLNGKEYKCKVSNKALPAPIEKTISKAKGQPREPQVCTLPPSRDELTKNQVSLWCLVKGFYPSDIAVEWESNGQPENNYKTTPPVLDSDGSFFLYSKLTVDKSRWQQGNVFSCSVMHEALHNRYTQKSLSLSP
light: DIVMTQSPLSLPVTPGEPASISCRSSQSLVHSNRNTYLHWYQQKPGQAPRLLIYKVSNRFSGVPDRFSGSGSGTDFTLKISRVEAEDVGVYYCGQGTQVPYTFGQGTKLEIKRTVAAPSVFIFPPSDEQLKSGTASVVCLLNNFYPREAKVQWKVDNALQSGNSQESVTEQDSKDSTYSLSSTLTLSKADYEKHKVYACEVTHQGLSSPVTKSFNRGEC
notes: one-arm antibody
B2: CE115HA000 Y100aQ one-arm antibody (antibody, human IgG1, kappa, L234A L235A, N297A, name in Kabat numbering)
heavy: QVQLVESGGGVVQPGRSLRLSCAASGFTFSNAWMHWVRQAPGKGLEWVAQIKAKSNNYATYYAESVKGRFTISRDDSKNSLYLQMNSLKTEDTAVYYCRYVHYGAYQGVDAWGQGTTVTVSSASTKGPSVFPLAPSSKSTSGGTAALGCLVKDYFPEPVTVSWNSGALTSGVHTFPAVLQSSGLYSLSSVVTVPSSSLGTQTYICNVNHKPSNTKVDKKVEPKSCDKTHTCPPCPAPEAAGGPSVFLFPPKPKDTLMISRTPEVTCVVVDVSHEDPEVKFNWYVDGVEVHNAKTKPREEQYASTYRVVSVLTVLHQDWLNGKEYKCKVSNKALPAPIEKTISKAKGQPREPQVYTLPPSRCELTKNQVSLSCAVKGFYPSDIAVEWESNGQPENNYKTTPPVLDSDGSFFLVSKLTVDKSRWQQGNVFSCSVMHEALHNHYTQKSLSLSPDYKDDDDK
chain: EPKSSDKTHTCPPCPAPELLGGPSVFLFPPKPKDTLMISRTPEVTCVVVDVSHEDPEVKFNWYVDGVEVHNAKTKPREEQYNSTYRVVSVLTVLHQDWLNGKEYKCKVSNKALPAPIEKTISKAKGQPREPQVCTLPPSRDELTKNQVSLWCLVKGFYPSDIAVEWESNGQPENNYKTTPPVLDSDGSFFLYSKLTVDKSRWQQGNVFSCSVMHEALHNRYTQKSLSLSP
light: DIVMTQSPLSLPVTPGEPASISCRSSQSLVHSNRNTYLHWYQQKPGQAPRLLIYKVSNRFSGVPDRFSGSGSGTDFTLKISRVEAEDVGVYYCGQGTQVPYTFGQGTKLEIKRTVAAPSVFIFPPSDEQLKSGTASVVCLLNNFYPREAKVQWKVDNALQSGNSQESVTEQDSKDSTYSLSSTLTLSKADYEKHKVYACEVTHQGLSSPVTKSFNRGEC
notes: one-arm antibody

Target: T1, CD3 epsilon homodimer protein (UniProt P07766 23-126)
T1 construct: Construct of the homodimer protein is not described; also called CD3 (CD3 epsilon)
Experiment: SPR (Biacore T200), CD3 epsilon homodimer on CM4 chip, one-arm antibody as analyte; ratio to unaltered CE115HA000;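 also: surface plasmon resonance run at 25 °C with HBS-EP+ as running buffer, CD3 epsilon homodimer attached by amine coupling, antibody passed over as analyte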

T1 sequence (P07766 23-126): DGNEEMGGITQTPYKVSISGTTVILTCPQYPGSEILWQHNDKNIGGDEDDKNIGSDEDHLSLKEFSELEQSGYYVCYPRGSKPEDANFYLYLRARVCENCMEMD

| Binder | KD ratio (KD value of CE115HA000/KD value of the altered form) |
| --- | --- |
| B1 | 0.57 |
| B2 | 0.51 |
